# Measured values reported in the Human Domainome abundance scans (Beltran et al. 2025).
# ± gives the uncertainty stated by the source.
# B1: Tyrosine-protein kinase BTK, residues 215 to 273; numbered along this chain, Q06187 (parent)
# chain: ELKKVVALYDYMPMNANDLQLRKGDEYFILEESNLPWWRARDKNGQEGYIPSNYVTEAE
# Variants of: B1
# Assay: abundance fitness (aPCA) (normalised: wild type 0, dead -1); higher = more abundant; growth selection in yeast, the domain comes from the species named
# Conditions: Homo sapiens
row,Variant,abundance fitness
1,A16T,-0.031 ± 0.039
2,P51H,-0.04 ± 0.097
3,D42A,0.017 ± 0.042
4,E57R,-0.065 ± 0.033
5,R22Y,0 ± 0.07
6,G24P,-0.748 ± 0.092
7,S52Y,-0.226 ± 0.067
8,L19S,-0.695 ± 0.042
9,P51S,-0.186 ± 0.043
10,V55Y,-0.836 ± 0.15
11,E47R,-0.244 ± 0.036
12,A40K,-1.07 ± 0.18
13,W38M,0.017 ± 0.037
14,Y54K,-0.159 ± 0.07
15,Y54N,-0.266 ± 0.065
16,S33M,-0.02 ± 0.05
17,D18A,-0.017 ± 0.041
18,A58L,-0.113 ± 0.039
19,E31L,-0.122 ± 0.033
20,E31A,-0.008 ± 0.052
21,Y27N,-0.537 ± 0.1

row,Variant,abundance fitness
1,S33D,-0.088 ± 0.08
2,R41I,-0.158 ± 0.088
3,P13M,-0.406 ± 0.077
4,Q20L,-0.055 ± 0.038
5,Y11W,0.017 ± 0.04
6,E57D,-0.072 ± 0.074
7,Y9A,0.062 ± 0.042
8,V5H,-0.335 ± 0.071
9,N34P,0.031 ± 0.053
10,L35C,-0.082 ± 0.049
11,G48C,-0.793 ± 0.096
12,N44T,0.029 ± 0.051
13,L19Q,-0.711 ± 0.059
14,Y27E,-0.646 ± 0.064
15,L30V,-0.015 ± 0.047
16,E26V,-0.032 ± 0.041
17,L35V,-0.017 ± 0.039
18,L8Q,-0.093 ± 0.047
19,A7I,-0.966 ± 0.15
20,G24Q,-0.302 ± 0.048
21,Y27S,-0.69 ± 0.052

row,Variant,abundance fitness
1,L30I,-0.026 ± 0.056
2,V6R,-0.093 ± 0.026
3,N17P,-0.123 ± 0.045
4,G45T,-0.425 ± 0.062
5,Y27C,-0.299 ± 0.065
6,D18R,0.004 ± 0.031
7,L2N,0.012 ± 0.088
8,N17C,-0.01 ± 0.056
9,L2I,-0.089 ± 0.071
10,N17S,-0.002 ± 0.035
11,L2F,0.011 ± 0.043
12,Y49S,-0.046 ± 0.042
13,M14L,-0.018 ± 0.03
14,M14V,0.026 ± 0.032
15,I29H,-0.99 ± 0.2
16,E32R,-0.038 ± 0.05
17,P36Y,-0.148 ± 0.058
18,A7K,-0.955 ± 0.06
19,Y54A,0.02 ± 0.05
20,N44C,-0.019 ± 0.076
21,K3E,-0.309 ± 0.07

row,Variant,abundance fitness
1,E57F,-0.026 ± 0.063
2,A7P,-0.654 ± 0.053
3,A58W,-0.11 ± 0.083
4,E47P,-0.473 ± 0.056
5,P36W,-0.17 ± 0.051
6,E47L,-0.163 ± 0.035
7,D42F,-0.843 ± 0.076
8,E57N,0.088 ± 0.069
9,Y9W,-0.053 ± 0.044
10,Q46R,-0.016 ± 0.035
11,M14H,0.068 ± 0.1
12,D42I,-0.995 ± 0.14
13,V6W,-0.067 ± 0.042
14,A7V,-0.681 ± 0.04
15,P36G,-0.089 ± 0.038
16,I29S,-0.544 ± 0.045
17,D25M,-0.005 ± 0.041
18,D42G,-0.103 ± 0.036
19,G24E,-0.276 ± 0.048
20,A58V,0.001 ± 0.037
21,Y27I,-0.054 ± 0.073
